Laboratory results: patent US20170298096A1 (CANIMGUIDE THERAPEUTICS, published 2017)
No end group written: not given here.

Target: T1, His-tagged P3028 (human, also: His-tag, terminus and sequence not given here)
T1 construct: used in solution in the PEPSCAN (rampo) ELISA; also called PGE73; His-tag-P3028; not shown: His tag
T1 peptide: VFDEFKPLVEEPQNLIK
Test: PEPSCAN ELISA (rampo)

Binder	rampo score relative to the P28R control sample	RAMPO Score [rampo units]
KKLDTFLVKLSLFTER [SEQ ID NO 320]	≥ 98 % of P28R control	–
KKLDTFFVKNSLFTER [SEQ ID NO 337]	≥ 98 % of P28R control	–
KKLDTFFVKPSLFTER [SEQ ID NO 338]	≥ 98 % of P28R control	–
KKLDTFFGKLSLFTER (also called P28R with G at position 8) [SEQ ID NO 327]	≥ 98 % of P28R control	≥ 302
KKLDTFFVKLHLFTER [SEQ ID NO 345]	≥ 98 % of P28R control	–
KKLDTFFRKLSLFTER (also called P28R with R at position 8) [SEQ ID NO 330]	≥ 98 % of P28R control	≥ 302
KKLDTFQVKLSLFTER [SEQ ID NO 322]	≥ 98 % of P28R control	–
KKLDTFFVKLQLFTER [SEQ ID NO 348]	≥ 98 % of P28R control	–
KKLDTFFVKASLFTER [SEQ ID NO 332]	≥ 98 % of P28R control	–
KKLDTFFVKLTLFTER [SEQ ID NO 349]	≥ 98 % of P28R control	–
KKLDTFFVKYSLFTER [SEQ ID NO 344]	≥ 98 % of P28R control	–
KKLDTFFLKLSLFTER (also called P28R with L at position 8) [SEQ ID NO 328]	≥ 98 % of P28R control	≥ 302
KKLDTFFPKLSLFTER (also called P28R with P at position 8) [SEQ ID NO 329]	≥ 98 % of P28R control	≥ 302
KKLDTFFVKGSLFTER [SEQ ID NO 334]	≥ 98 % of P28R control	–
KKLDTFFVKTSLFTER [SEQ ID NO 342]	≥ 98 % of P28R control	–
KKLDTFMVKLSLFTER [SEQ ID NO 321]	≥ 98 % of P28R control	–

Binder	rampo score relative to the P28R control sample	RAMPO Score [rampo units]
KKLDTFFVKRSLFTER [SEQ ID NO 340]	≥ 98 % of P28R control	–
KKLDTFTVKLSLFTER [SEQ ID NO 324]	≥ 98 % of P28R control	–
KKLDTFFVKLSAFTER [SEQ ID NO 350]	≥ 98 % of P28R control	–
KKLDTFFVKQSLFTER [SEQ ID NO 339]	≥ 98 % of P28R control	–
KKLDTFFVKLNLFTER [SEQ ID NO 347]	≥ 98 % of P28R control	–
KKLDTFFVKLMLFTER [SEQ ID NO 346]	≥ 98 % of P28R control	–
KKLDTFVVKLSLFTER [SEQ ID NO 325]	≥ 98 % of P28R control	–
KKLDTFFFKLSLFTER (also called P28R with F at position 8) [SEQ ID NO 326]	≥ 98 % of P28R control	≥ 302
KKLDTFFVKFSLFTER [SEQ ID NO 333]	≥ 98 % of P28R control	–
KKLDTFFVKISLFTER [SEQ ID NO 335]	≥ 98 % of P28R control	–
KKLDTFFVKMSLFTER [SEQ ID NO 336]	≥ 98 % of P28R control	–
KKLDTFSVKLSLFTER [SEQ ID NO 323]	≥ 98 % of P28R control	–
KKLDTFFVRLSLFTER [SEQ ID NO 331]	≥ 98 % of P28R control	–
KKLDTFFVKSSLFTER [SEQ ID NO 341]	≥ 98 % of P28R control	–
KKLDTFFVKVSLFTER [SEQ ID NO 343]	≥ 98 % of P28R control	–

The next lines start with the values.

rampo score relative to the P28R control sample	RAMPO Score [rampo units]	Binder
≥ 98 % of P28R control	–	KKLDTFFVKLSTFTER [SEQ ID NO 358]
≥ 98 % of P28R control	–	KKLDTFFVKLSLHTER [SEQ ID NO 364]
≥ 98 % of P28R control	–	KKLDTFFVKLSLPTER [SEQ ID NO 369]
≥ 98 % of P28R control	–	KKLDTFFVKLSHFTER [SEQ ID NO 351]
≥ 98 % of P28R control	–	KKLDTFFVKLSLMTER [SEQ ID NO 367]
≥ 98 % of P28R control	–	KKLDTFFVKLSLFFER [SEQ ID NO 376]
≥ 98 % of P28R control	–	KKLDTFFVKLSLFHER [SEQ ID NO 378]
≥ 98 % of P28R control	–	KKLDTFFVKLSWFTER [SEQ ID NO 360]
≥ 98 % of P28R control	–	KKLDTFFVKLSLVTER [SEQ ID NO 374]
≥ 98 % of P28R control	–	KKLDTFFVKLSRFTER [SEQ ID NO 356]
≥ 98 % of P28R control	–	KKLDTFFVKLSLGTER [SEQ ID NO 363]
≥ 98 % of P28R control	–	KKLDTFFVKLSLWTER [SEQ ID NO 375]
≥ 98 % of P28R control	–	KKLDTFFVKLSVFTER [SEQ ID NO 359]
≥ 98 % of P28R control	–	KKLDTFFVKLSQFTER [SEQ ID NO 355]
≥ 98 % of P28R control	–	KKLDTFFVKLSLNTER [SEQ ID NO 368]
≥ 98 % of P28R control	–	KKLDTFFVKLSLATER [SEQ ID NO 361]
≥ 98 % of P28R control	–	KKLDTFFVKLSMFTER [SEQ ID NO 353]

rampo score relative to the P28R control sample	RAMPO Score [rampo units]	Binder
≥ 98 % of P28R control	–	KKLDTFFVKLSSFTER [SEQ ID NO 357]
≥ 98 % of P28R control	–	KKLDTFFVKLSLRTER [SEQ ID NO 371]
≥ 98 % of P28R control	–	KKLDTFFVKLSLQTER [SEQ ID NO 370]
≥ 98 % of P28R control	–	KKLDTFFVKLSIFTER [SEQ ID NO 352]
≥ 98 % of P28R control	–	KKLDTFFVKLSLSTER [SEQ ID NO 372]
≥ 98 % of P28R control	–	KKLDTFFVKLSNFTER [SEQ ID NO 354]
≥ 98 % of P28R control	–	KKLDTFFVKLSLFPER [SEQ ID NO 383]
≥ 98 % of P28R control	–	KKLDTFFVKLSLFLER [SEQ ID NO 380]
≥ 98 % of P28R control	–	KKLDTFFVKLSLFNER [SEQ ID NO 382]
≥ 98 % of P28R control	–	KKLDTFFVKLSLITER [SEQ ID NO 365]
≥ 98 % of P28R control	–	KKLDTFFVKLSLCTER [SEQ ID NO 362]
≥ 98 % of P28R control	–	KKLDTFFVKLSLTTER [SEQ ID NO 373]
≥ 98 % of P28R control	–	KKLDTFFVKLSLFGER [SEQ ID NO 377]
≥ 98 % of P28R control	–	KKLDTFFVKLSLFMER [SEQ ID NO 381]
≥ 98 % of P28R control	–	KKLDTFFVKLSLFIER [SEQ ID NO 379]
≥ 98 % of P28R control	–	KKLDTFFVKLSLLTER [SEQ ID NO 366]
